The subject of the data set is C100Flag recombinant protein (Met + APP695 C-terminal fragment + Flag).

C100Flag recombinant protein (Met + APP695 C-terminal fragment + Flag), sequence (chain, as listed by the source): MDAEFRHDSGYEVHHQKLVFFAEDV

With “γ3 protease in a membrane preparation from HeLa S3 cells”, the “γ-secretase activity (cleavage of the substrate, Aβ products detected by ECL)” value is “significant γ-secretase activity remains at pH 6.0 (the pH optimum for γ-secretase activity associated with γ3 protease)”.
